Usually Kd stands for a measure of binding affinity in units of concentration. In general, koff refers to a measure of how fast the partners let go of each other. What is called kon is the rate constant with which the complex forms.

To fix the notation:
B1: Fab 007 (Fab, V domains shown)
VH: not shown
VL: DIVMTQSPDSLAVSLGERATINCRASQSVDLFGKSYMHWYQQKPGQPPKLLIYAASNPESGVPDRFSGSGSGTDFTLTISSLQAEDVAVYYCQQIIDDPWTFGQGTKVEIK
B2: Fab 008 (Fab, V domains shown)
VH: not shown
VL: B1 VL with Q27D
B3: Fab 011 (Fab, V domains shown)
VH: not shown
VL: B1 VL with Q27D, K34Q
B4: Fab 017 (Fab, V domains shown)
VH: not shown
VL: B1 VL with Q27D, L31Y, K34Q
B5: Fab 032 (Fab, V domains shown)
VH: not shown
VL: B1 VL with Q27D, L31Y, K34R
B6: Fab 024 (Fab, V domains shown)
VH: not shown
VL: B1 VL with Q27D, K34T
B7: Fab 014 (Fab, V domains shown)
VH: not shown
VL: B1 VL with Q27D, K34V
B8: Fab 015 (Fab, V domains shown)
VH: not shown
VL: B1 VL with L31F, K34T
B9: Fab 028 (Fab, V domains shown)
VH: not shown
VL: B1 VL with Q27D, K34V, D97E
B10: Fab 025 (Fab, V domains shown)
VH: not shown
VL: B1 VL
B11: Fab 022 (Fab, V domains shown)
VH: not shown
VL: B1 VL with K34T
B12: Fab 010 (Fab, V domains shown)
VH: not shown
VL: B1 VL with Q27D, K34R
B13: Fab 026 (Fab, V domains shown)
VH: not shown
VL: B1 VL with Q27D, L31F
B14: Fab 019 (Fab, V domains shown)
VH: not shown
VL: B1 VL with Q27D, K34Q
B15: Fab 012 (Fab, V domains shown)
VH: not shown
VL: B1 VL
B16: Fab 016 (Fab, V domains shown)
VH: not shown
VL: B1 VL with L31Y, K34V
B17: Fab 013 (Fab, V domains shown)
VH: not shown
VL: B1 VL with Q27D, K34Q
B18: Fab 030 (Fab, V domains shown)
VH: not shown
VL: B1 VL with L31Y, F32L
B19: Fab 009 (Fab, V domains shown)
VH: not shown
VL: B1 VL with Q27D, K34R
B20: Fab 029 (Fab, V domains shown)
VH: not shown
VL: B1 VL with Q27D, L31Y, K34V
B21: Fab A10 (Fab, V domains shown)
VH: not shown
VL: B1 VL with F32L, K34G, D97E
B22: Fab 018 (Fab, V domains shown)
VH: not shown
VL: B1 VL with Q27D, K34Q, D97E

Substitutions are numbered along the chain they refer to. Bounds are passed on as bounds.
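Wherever Kd is given: purified Fabs injected at a single concentration, reference surface subtracted, rate constants from a one-to-one binding model fit, Kd computed as koff divided by kon.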
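Wherever koff is given: purified Fabs injected at a single concentration, reference surface subtracted, rate constants from a one-to-one binding model fit, Kd computed as koff divided by kon.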
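Wherever kon is given: purified Fabs injected at a single concentration, reference surface subtracted, rate constants from a one-to-one binding model fit, Kd computed as koff divided by kon.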

T1 sequence (P12568 26-109, chain 1 of 2): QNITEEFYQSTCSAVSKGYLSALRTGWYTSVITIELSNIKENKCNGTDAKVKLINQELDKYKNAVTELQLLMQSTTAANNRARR
T1 sequence (P12568 137-524, chain 2 of 2): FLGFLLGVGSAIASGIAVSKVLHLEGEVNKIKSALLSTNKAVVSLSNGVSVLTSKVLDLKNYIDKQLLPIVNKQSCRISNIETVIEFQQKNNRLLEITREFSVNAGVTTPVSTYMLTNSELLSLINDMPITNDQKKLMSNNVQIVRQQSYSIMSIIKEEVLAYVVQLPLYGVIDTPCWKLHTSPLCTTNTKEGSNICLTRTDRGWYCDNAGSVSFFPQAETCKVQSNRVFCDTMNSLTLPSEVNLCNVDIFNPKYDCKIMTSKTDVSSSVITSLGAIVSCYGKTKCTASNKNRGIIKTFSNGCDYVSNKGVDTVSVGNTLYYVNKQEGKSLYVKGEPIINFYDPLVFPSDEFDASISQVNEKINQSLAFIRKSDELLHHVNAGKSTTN

The target in one test is RSV F protein on human RSV virus (Long strain) (human RSV, Long strain, UniProt P12568 26-574). Put plainly: cell-based or functional assay.
Take B1: the “Viral Neut (fold increase over wild-type B23 Fab)” value was 5 fold.

B2: the “Viral Neut (fold increase over wild-type B23 Fab)” value came to 15 fold.

With B3, the “Viral Neut (fold increase over wild-type B23 Fab)” value is above 23 fold.

Regarding B4, the “Viral Neut (fold increase over wild-type B23 Fab)” value is above 23 fold.

Turning to B5, the “Viral Neut (fold increase over wild-type B23 Fab)” value was above 23 fold.

With B6, the “Viral Neut (fold increase over wild-type B23 Fab)” value was above 23 fold.

Regarding B7, the “Viral Neut (fold increase over wild-type B23 Fab)” value was below 1 fold.

Take B8: the “Viral Neut (fold increase over wild-type B23 Fab)” value came to 8 fold.

As for B9, the “Viral Neut (fold increase over wild-type B23 Fab)” value turned out to be 18 fold.

Take B10: the “Viral Neut (fold increase over wild-type B23 Fab)” value amounted to 20 fold.

In the case of B11, the “Viral Neut (fold increase over wild-type B23 Fab)” value stood at 22 fold.

On to B12, for which the “Viral Neut (fold increase over wild-type B23 Fab)” value was determined as 18 fold.

In the case of B13, the “Viral Neut (fold increase over wild-type B23 Fab)” value came out at 20 fold.

For the molecule B14, the “Viral Neut (fold increase over wild-type B23 Fab)” value is above 23 fold.

In the case of B15, the “Viral Neut (fold increase over wild-type B23 Fab)” value stood at 11 fold.

Regarding B16, the “Viral Neut (fold increase over wild-type B23 Fab)” value worked out at 10 fold.

Regarding B17, the “Viral Neut (fold increase over wild-type B23 Fab)” value stood at 13 fold.

With B18, the “Viral Neut (fold increase over wild-type B23 Fab)” value is 18 fold.

In the case of B19, the “Viral Neut (fold increase over wild-type B23 Fab)” value was determined as 19 fold.

With B20, the “Viral Neut (fold increase over wild-type B23 Fab)” value is above 23 fold.

A further test has as its target T1, soluble, extracellular domain of recombinantly expressed RSV F protein (human RSV).
T1 construct: extracellular domain; also called recombinant RSV F protein; recombinant RSV-F
Put plainly: SPR (Biacore), Fab over captured biotinylated RSV-F.
As to B19, the “fold decrease in binding dissociation constant (Kd) relative to A7” value is around 4 fold.

The target in a further test is T1, soluble, extracellular domain of …. The test is described as above. This is another data set of the same source.
Consider B1, for which the Kd amounted to 0.058 nM, the koff was 0.00019 s⁻¹ and the kon was 3.3e+06 M⁻¹ s⁻¹.

Turning to B2, the Kd stood at 0.133 nM, the off-rate (koff) is 0.00028 s⁻¹ and the kon came to 2.1e+06 M⁻¹ s⁻¹.

Turning to B3, the Kd was determined as 0.007 nM, the koff was 2.7e-05 s⁻¹ and the kon turned out to be 4e+06 M⁻¹ s⁻¹.

Turning to B4, the Kd is 0.054 nM, the koff stood at 8.1e-05 s⁻¹ and the kon was 1.5e+06 M⁻¹ s⁻¹.

B5: the Kd is 0.039 nM, the koff came to 3.6e-05 s⁻¹ and the on-rate (kon) is 930000 M⁻¹ s⁻¹.

Consider B6, for which the Kd stood at 0.002 nM, the koff was determined as 7e-06 s⁻¹ and the kon is 3.14e+06 M⁻¹ s⁻¹.

Turning to B7, the Kd was determined as 0.184 nM, the koff worked out at 7e-05 s⁻¹ and the kon is 380000 M⁻¹ s⁻¹.

With B8, the Kd came to 0.016 nM, the koff was 7.8e-05 s⁻¹ and the kon worked out at 5e+06 M⁻¹ s⁻¹.

Turning to B9, the Kd was found to be 0.02 nM, the koff is 8.6e-05 s⁻¹ and the kon is 4.2e+06 M⁻¹ s⁻¹.

In the case of B10, the Kd is 0.018 nM, the koff is 4.6e-05 s⁻¹ and the association rate constant (kon) is 2.52e+06 M⁻¹ s⁻¹.

B11: the dissociation constant Kd amounted to 0.025 nM, the koff was 5.4e-05 s⁻¹ and the on-rate (kon) was 2.16e+06 M⁻¹ s⁻¹.

For the molecule B12, the Kd stood at 0.047 nM, the koff was found to be 0.00018 s⁻¹ and the kon was found to be 3.8e+06 M⁻¹ s⁻¹.

Take B13: the Kd amounted to 0.028 nM, the koff was 6.6e-05 s⁻¹ and the kon came out at 2.39e+06 M⁻¹ s⁻¹.

On to B14, for which the dissociation constant Kd amounted to 0.0135 nM, the koff was found to be 4.5e-05 s⁻¹ and the kon turned out to be 3.34e+06 M⁻¹ s⁻¹.

Take B15: the Kd stood at 0.005 nM, the koff turned out to be 1.5e-05 s⁻¹ and the kon stood at 3e+06 M⁻¹ s⁻¹.

As for B16, the Kd came out at 0.09 nM, the koff turned out to be 9e-05 s⁻¹ and the kon is 1e+06 M⁻¹ s⁻¹.

B21: the Kd stood at 0.175 nM, the dissociation rate constant (koff) was determined as 0.000147 s⁻¹ and the kon was 850000 M⁻¹ s⁻¹.

Regarding B17, the Kd stood at 0.058 nM, the koff worked out at 0.00021 s⁻¹ and the kon was 3.6e+06 M⁻¹ s⁻¹.

Regarding B18, the Kd was found to be 0.073 nM, the koff was found to be 7.5e-05 s⁻¹ and the kon worked out at 1.03e+06 M⁻¹ s⁻¹.

As for B22, the Kd is 0.055 nM, the koff stood at 8.8e-05 s⁻¹ and the on-rate (kon) came to 1.6e+06 M⁻¹ s⁻¹.

Regarding B19, the Kd came to 0.028 nM, the koff was found to be 7.9e-05 s⁻¹ and the kon is 2.8e+06 M⁻¹ s⁻¹.

For B20, the Kd was 0.009 nM, the koff was 4e-05 s⁻¹ and the kon is 4.58e+06 M⁻¹ s⁻¹.

The values are drawn from patent US20060159695A1 (published 2006).
